Test results published in IntAct's records for PubMed 26437117.

B1: Synaptotagmin-1 (Rattus norvegicus (Rat)), P21707 (parent)
chain: MVSASHPEALAAPVTTVATLVPHNATEPASPGEGKEDAFSKLKQKFMNELHKIPLPPWALIAIAIVAVLLVVTCCFCVCKKCLFKKKNKKKGKEKGGKNAINMKDVKDLGKTMKDQALKDDDAETGLTDGEEKEEPKEEEKLGKLQYSLDYDFQNNQLLVGIIQAAELPALDMGGTSDPYVKVFLLPDKKKKFETKVHRKTLNPVFNEQFTFKVPYSELGGKTLVMAVYDFDRFSKHDIIGEFKVPMNTVDFGHVTEEWRDLQSAEKEEQEKLGDICFSLRYVPTAGKLTVVILEAKNLKKMDVGGLSDPYVKIHLMQNGKRLKKKKTTIKKNTLNPYYNESFSFEVPFEQIQKVQVVVTVLDYDKIGKNDAIGKVFVGYNSTGAELRHWSDMLANPRRPIAQWHTLQVEEEVDAMLAVKK

Variants of: B1
Conditions: with stx1a_mouse Stx1a

Variant | effect of a mutation on the interaction
D178A;D230A;D232A;D309A;D363A;D365A | decreasing interaction strength
